Substrate in data set [1]: CC(C)(COP(=O)(O)OP(=O)(O)OC[C@H]1O[C@@H](n2cnc3c(N)ncnc32)[C@H](O)[C@@H]1O)[C@@H](O)C(=O)NCCC(=O)NCCS
The data set can be described thus: purified protein. The format is biochemical, Thermococcus kodakarensis. The note with it: 5 mM GTP varied dephospho-CoA, 5 mM MgCl2, 300 mM KCl, 50 mM Bicine pH 8.0, 80 °C.

Substrate in data set [2]: Nc1nc2c(ncn2[C@@H]2O[C@H](COP(=O)(O)OP(=O)(O)OP(=O)(O)O)[C@@H](O)[C@H]2O)c(=O)[nH]1
Kind of data set: purified protein. The format is biochemical, Thermococcus kodakarensis. The note with it: 1 mM dephospho-CoA, varied GTP, 5 mM MgCl2, 300 mM KCl, 50 mM Bicine pH 8.0, 80 °C.

B1: TK1697 protein (Tk-DPCK) (Thermococcus kodakarensis KOD1) (protein)
chain: MKMFFRLTRELRDELKRPLGELVRGPIPEPYLKVRGELEKHPVVTVGDVVTENVLKIGVKPIIALYDLKTKRKEYSPEIEDTAVFLTVTNPPGTITKALLDTVRKAFGLAERGRNVHILVSGEEDLAAIPAVLYAPLGTLVLYGQPDEGVVLIKVTPECKRRCAKILASMEVVRDGD
notes: full-length gene in pET21a(+) (NdeI/EcoRI, own stop codon, untagged), expressed in E. coli BL21-CodonPlus(DE3)-RIL; calculated 19,657 Da
On to B1, for which, in the data set “purified protein [1]”, the Km (commonly the substrate concentration at which the rate is half of its maximum) came to 140 ± 20 µM; the Vmax (usually the top rate of the reaction or transport when substrate is in excess) came out at 17 µmol/min/mg; the kcat (commonly the number of substrate molecules converted per active site and unit of time at saturation) is 5.57 s⁻¹; the kcat/Km (usually the second-order rate constant that governs catalysis at low substrate concentration) came to 40400 M⁻¹ s⁻¹. Besides, in “purified protein [2]”, the Km is 260 ± 60 µM, the Vmax is 20.4 µmol/min/mg, the kcat was found to be 6.68 s⁻¹ and the kcat/Km was determined as 25700 M⁻¹ s⁻¹.

Source of the values: publication PMC6650551, “Identification of Dephospho-Coenzyme A (Dephospho-CoA) Kinase in Thermococcus kodakarensis and Elucidation of the Entire CoA Biosynthesis Pathway in Archaea” (mBio, 2019).
